# B1: MNAT1 (parent)
# chain: SLREYNDFLEEVEEIVFNLTNNVD
# Variants of: B1
# Experiment: protein stability index of a GFP-peptide fusion (GPS, HEK-293T) (PSI 1-6); higher = more stable
# Details: c terminus: a fixed tail appended
# 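Also: lentivirally expressed fusions sorted by FACS into six bins by GFP to DsRed ratio, PSI derived from sequencing read proportions per bin multiplied by bin number.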
row,Variant,protein stability index
1,SLREYNDFLEEVMEIVFNLTNNVD [E13M],2.94
2,SLREYNDFLEEVKEIVFNLTNNVD [E13K],2.69
3,SLREYNDFLEEVQEIVFNLTNNVD [E13Q],1.93
4,SLREYNDFLEEVLEIVFNLTNNVD [E13L],2.5
5,SLREYNDFCEEVEEIVFNLTNNVD [L9C],3.36
6,SLREYNDFMEEVEEIVFNLTNNVD [L9M],2.76
7,SLREYNDFREEVEEIVFNLTNNVD [L9R],3.83
8,SLREYNDFFEEVEEIVFNLTNNVD [L9F],3.05
9,SLREYNDFPEEVEEIVFNLTNNVD [L9P],4.61
10,SLREYNDFQEEVEEIVFNLTNNVD [L9Q],4.07
11,SLREYNDFAEEVEEIVFNLTNNVD [L9A],4.09
12,SLREYNDFWEEVEEIVFNLTNNVD [L9W],1.79
13,SLREYNDFIEEVEEIVFNLTNNVD [L9I],2.26
14,SLREYNDFKEEVEEIVFNLTNNVD [L9K],3.98
15,SLREYNDFEEEVEEIVFNLTNNVD [L9E],4.32
16,SLREYNDFVEEVEEIVFNLTNNVD [L9V],3.77
17,SLREYNDFTEEVEEIVFNLTNNVD [L9T],4.07
18,SLREYNDFNEEVEEIVFNLTNNVD [L9N],4.6
19,SLREYNDFHEEVEEIVFNLTNNVD [L9H],4.22
20,SLREYNDFSEEVEEIVFNLTNNVD [L9S],4.82
21,SLREYNDFGEEVEEIVFNLTNNVD [L9G],3.98
22,SLREYNDFDEEVEEIVFNLTNNVD [L9D],4.5
23,SLREYNDFYEEVEEIVFNLTNNVD [L9Y],3.59
24,SLREYNTFLEEVEEIVFNLTNNVD [D7T],1.47

row,Variant,protein stability index
1,SLREYNMFLEEVEEIVFNLTNNVD [D7M],2.27
2,SLREYNKFLEEVEEIVFNLTNNVD [D7K],1.58
3,SLREYNEFLEEVEEIVFNLTNNVD [D7E],1.91
4,SLREYNHFLEEVEEIVFNLTNNVD [D7H],1.31
5,SLREYNQFLEEVEEIVFNLTNNVD [D7Q],1.83
6,SLREYNPFLEEVEEIVFNLTNNVD [D7P],3
7,SLREYNGFLEEVEEIVFNLTNNVD [D7G],1.75
8,SLREYNRFLEEVEEIVFNLTNNVD [D7R],1.63
9,SLREYNCFLEEVEEIVFNLTNNVD [D7C],2.27
10,SLREYNYFLEEVEEIVFNLTNNVD [D7Y],1.79
11,SLREYNNFLEEVEEIVFNLTNNVD [D7N],2.49
12,SLREYNFFLEEVEEIVFNLTNNVD [D7F],2.32
13,SLREYNVFLEEVEEIVFNLTNNVD [D7V],2.16
14,SLREYNSFLEEVEEIVFNLTNNVD [D7S],2.05
15,SLREYNAFLEEVEEIVFNLTNNVD [D7A],2.43
16,SLREYNLFLEEVEEIVFNLTNNVD [D7L],1.94
17,SLREYNWFLEEVEEIVFNLTNNVD [D7W],1.96
18,SLRRYNDFLEEVEEIVFNLTNNVD [E4R],1.85
19,SLRKYNDFLEEVEEIVFNLTNNVD [E4K],2.75
20,SLRMYNDFLEEVEEIVFNLTNNVD [E4M],2.26
21,SLRSYNDFLEEVEEIVFNLTNNVD [E4S],2.31
22,SLRIYNDFLEEVEEIVFNLTNNVD [E4I],1.69
23,SLRWYNDFLEEVEEIVFNLTNNVD [E4W],1.8
24,SLRLYNDFLEEVEEIVFNLTNNVD [E4L],2.5

row,Variant,protein stability index
1,SLRQYNDFLEEVEEIVFNLTNNVD [E4Q],2.27
2,SLRTYNDFLEEVEEIVFNLTNNVD [E4T],1.72
3,SLRPYNDFLEEVEEIVFNLTNNVD [E4P],2.98
4,SLRNYNDFLEEVEEIVFNLTNNVD [E4N],2.04
5,SLRHYNDFLEEVEEIVFNLTNNVD [E4H],2.66
6,SLRGYNDFLEEVEEIVFNLTNNVD [E4G],2.39
7,SLRFYNDFLEEVEEIVFNLTNNVD [E4F],2.34
8,SLRVYNDFLEEVEEIVFNLTNNVD [E4V],2.08
9,SLRYYNDFLEEVEEIVFNLTNNVD [E4Y],1.39
10,SLREYNDFLDEVEEIVFNLTNNVD [E10D],1.95
11,SLREYNDFLKEVEEIVFNLTNNVD [E10K],1.91
12,SLREYNDFLTEVEEIVFNLTNNVD [E10T],2.01
13,SLREYNDFLSEVEEIVFNLTNNVD [E10S],2.41
14,SLREYNDFLPEVEEIVFNLTNNVD [E10P],3.54
15,SLREYNDFLCEVEEIVFNLTNNVD [E10C],2.74
16,SLREYNDFLIEVEEIVFNLTNNVD [E10I],1.3
17,SLREYNDFLGEVEEIVFNLTNNVD [E10G],2.72
18,SLREYNDFLQEVEEIVFNLTNNVD [E10Q],2.62
19,SLREYNDFLNEVEEIVFNLTNNVD [E10N],1.55
20,SLREYNDFLVEVEEIVFNLTNNVD [E10V],2.25
21,SLREYNDFLAEVEEIVFNLTNNVD [E10A],1.58
22,SLREYNDFLLEVEEIVFNLTNNVD [E10L],1.52
23,SLREYNDFLREVEEIVFNLTNNVD [E10R],1.86
24,SLREYNDFLMEVEEIVFNLTNNVD [E10M],1.4

row,Variant,protein stability index
1,SLREYNDFLFEVEEIVFNLTNNVD [E10F],2.97
2,SLREYNDFLWEVEEIVFNLTNNVD [E10W],1.95
3,SLREYNDFLYEVEEIVFNLTNNVD [E10Y],2.15
4,SLREVNDFLEEVEEIVFNLTNNVD [Y5V],2.05
5,SLRENNDFLEEVEEIVFNLTNNVD [Y5N],4.14
6,SLREANDFLEEVEEIVFNLTNNVD [Y5A],3.78
7,SLRESNDFLEEVEEIVFNLTNNVD [Y5S],4.29
8,SLRETNDFLEEVEEIVFNLTNNVD [Y5T],4.08
9,SLREKNDFLEEVEEIVFNLTNNVD [Y5K],4.55
10,SLREMNDFLEEVEEIVFNLTNNVD [Y5M],1.73
11,SLREENDFLEEVEEIVFNLTNNVD [Y5E],4.35
12,SLRECNDFLEEVEEIVFNLTNNVD [Y5C],3.11
13,SLRELNDFLEEVEEIVFNLTNNVD [Y5L],2.16
14,SLRERNDFLEEVEEIVFNLTNNVD [Y5R],4.19
15,SLREFNDFLEEVEEIVFNLTNNVD [Y5F],1.58
16,SLREDNDFLEEVEEIVFNLTNNVD [Y5D],2.23
17,SLREPNDFLEEVEEIVFNLTNNVD [Y5P],3.81
18,SLREQNDFLEEVEEIVFNLTNNVD [Y5Q],4.19
19,SLREINDFLEEVEEIVFNLTNNVD [Y5I],2.61
20,SLREGNDFLEEVEEIVFNLTNNVD [Y5G],3.91
21,SLREHNDFLEEVEEIVFNLTNNVD [Y5H],3.81
22,SLREWNDFLEEVEEIVFNLTNNVD [Y5W],2.56

# Source: the supplement of paper PMC10567573
